From PMC8828381

Target: biotinylated SARS-CoV-2-S1 (SINO BIOLOGICAL #40591-V08H-B) (SARS-CoV-2)
Test: SPR

## integrin α5β1 extracellular domain with flag tag on α5 and His tag on β1 (from UniProt P08648;P05556) (complex)
  Kd: 31 nM
